Reference: patent US20150203575A1 (Genentech, published 2015)

Key:
[1] = biological target: T1, IL-2Ra expressed on cells (human, UniProt P01589 22-272); assay: flow cytometry, transfected 293T cells, 2 µg/ml
T1 construct: Clone of the Origene human cDNA library; also called Interleukin 2 receptor alpha
T1 sequence: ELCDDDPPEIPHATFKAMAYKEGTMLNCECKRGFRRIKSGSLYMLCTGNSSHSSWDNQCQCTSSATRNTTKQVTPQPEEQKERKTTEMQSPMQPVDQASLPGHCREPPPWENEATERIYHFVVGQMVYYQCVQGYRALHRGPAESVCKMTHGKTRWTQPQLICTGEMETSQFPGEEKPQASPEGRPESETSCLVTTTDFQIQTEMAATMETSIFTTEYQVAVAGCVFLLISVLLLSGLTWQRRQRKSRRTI

PSS8 expressed on cells [2] = biological target: T2, PSS8 expressed on cells (human, UniProt Q16651 30-343); assay: flow cytometry, transfected 293T cells, 2 µg/ml
T2 construct: Clone of the Origene human cDNA library; also called Protease serine 8; prostasin

BR3 expressed on cells [3] = biological target: T3, BR3 expressed on cells (human, UniProt Q96RJ3 1-184); assay: flow cytometry, transfected 293T cells, 2 µg/ml
T3 construct: Clone of the Origene human cDNA library
T3 sequence: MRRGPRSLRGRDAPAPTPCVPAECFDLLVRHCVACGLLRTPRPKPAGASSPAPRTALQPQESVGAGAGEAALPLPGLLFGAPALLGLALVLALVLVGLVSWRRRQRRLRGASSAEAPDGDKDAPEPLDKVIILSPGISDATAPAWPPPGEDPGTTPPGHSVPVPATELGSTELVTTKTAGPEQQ

[4] = biological target: T4, human COLEC12 expressed on cells (human, UniProt Q5KU26 1-742); assay: flow cytometry, transfected 293T cells, 2 µg/ml; 293T-Neo: 0
T4 construct: also called hCOLEC12; C-terminal his tagged hCOLEC12

[5] = biological target: T5, mouse CD99 expressed on 293T cells (mouse, UniProt Q8VCN6 29-175, sialylated O-glycans at Thr-45 and Thr-50 (cited as relevant for PILRα recognition)); assay: as above
T5 construct: whole, on cells; also called mCD99; mCD99 transfectants
T5 sequence (looked up): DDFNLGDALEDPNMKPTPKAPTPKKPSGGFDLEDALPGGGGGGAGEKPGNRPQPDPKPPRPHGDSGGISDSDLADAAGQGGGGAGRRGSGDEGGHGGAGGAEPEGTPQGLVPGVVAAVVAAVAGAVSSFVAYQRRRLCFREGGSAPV

[6] = biological target: T6, human NPDC1 expressed on cells (human, UniProt Q9NQX5 35-325); assay: as above
T6 construct: also called hNPDC1; hNPCD1
T6 sequence: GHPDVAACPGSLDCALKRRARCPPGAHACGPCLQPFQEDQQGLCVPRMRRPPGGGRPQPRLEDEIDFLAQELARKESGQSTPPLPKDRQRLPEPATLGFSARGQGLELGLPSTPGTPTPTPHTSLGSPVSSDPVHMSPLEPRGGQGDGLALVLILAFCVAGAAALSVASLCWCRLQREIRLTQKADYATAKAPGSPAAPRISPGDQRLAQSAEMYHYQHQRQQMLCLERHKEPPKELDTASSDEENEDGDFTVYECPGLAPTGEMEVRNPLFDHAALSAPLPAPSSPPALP

[7] = biological target: T1, IL-2Ra expressed on cells; assay: flow cytometry, transfected 293T cells, 50 µg/ml
PSS8 expressed on cells [8] = biological target: T2, PSS8 expressed on cells; assay: flow cytometry, transfected 293T cells, 50 µg/ml
BR3 expressed on cells [9] = biological target: T3, BR3 expressed on cells; assay: flow cytometry, transfected 293T cells, 50 µg/ml
MAG expressed on cells = biological target: T7, MAG expressed on cells (human, UniProt P20916 20-626); assay: flow cytometry, transfected 293T cells, 2 µg/ml
T7 construct: Clone of the Origene human cDNA library; also called Myelin associated glycoprotein; SIGLEC4A
T7 sequence: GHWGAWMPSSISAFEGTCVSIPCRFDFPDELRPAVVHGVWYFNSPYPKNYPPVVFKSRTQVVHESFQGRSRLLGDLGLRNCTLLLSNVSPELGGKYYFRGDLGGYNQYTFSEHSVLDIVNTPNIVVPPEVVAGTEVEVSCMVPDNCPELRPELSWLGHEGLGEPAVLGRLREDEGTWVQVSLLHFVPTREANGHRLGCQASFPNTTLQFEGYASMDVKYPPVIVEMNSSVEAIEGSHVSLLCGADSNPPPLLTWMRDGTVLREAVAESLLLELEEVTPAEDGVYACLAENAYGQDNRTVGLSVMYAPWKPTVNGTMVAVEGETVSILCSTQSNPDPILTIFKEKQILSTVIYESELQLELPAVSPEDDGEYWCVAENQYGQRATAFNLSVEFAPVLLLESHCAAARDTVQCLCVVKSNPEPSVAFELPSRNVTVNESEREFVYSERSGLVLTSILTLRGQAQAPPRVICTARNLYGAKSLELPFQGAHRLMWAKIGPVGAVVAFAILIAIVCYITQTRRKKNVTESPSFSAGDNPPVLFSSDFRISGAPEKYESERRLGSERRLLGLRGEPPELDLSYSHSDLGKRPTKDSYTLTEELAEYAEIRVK

BR3 expressed on cells [10] = biological target: T3, BR3 expressed on cells; assay: flow cytometry, transfected 293T cells
[11] = biological target: T1, IL-2Ra expressed on cells; assay: cDNA expression library screen with PILRα-AP supernatant on COS7 transfectants; positive clones further analysed by FACS
Experimental: COS7 cells were plated in a 24-well format and transfected with 10 ul of Origene library DNA (Origene, human DNA library containing 20 k genes) per well with Fugene 6 Reagent. Two days later, cells were incubated with human or mouse PILRα-Ap supernatants for 45 min at room temperature (RT). Then cells were fixed with 4% PFA for 15 min at RT. After removing fixation buffer, cells were blocked with 100 mM Glycine in HBS (20 mM Hepes, PH7.2, 150 mM NaCl) for 15 min at RT. Cells were then rinsed and incubated in HBS for 90 min at 65° C. HBS was removed and Western Blue Substrate (Promega) was added and color was developed for 30 min to 1 hr.

T2 sequence (Q16651 30-343 limits assumed): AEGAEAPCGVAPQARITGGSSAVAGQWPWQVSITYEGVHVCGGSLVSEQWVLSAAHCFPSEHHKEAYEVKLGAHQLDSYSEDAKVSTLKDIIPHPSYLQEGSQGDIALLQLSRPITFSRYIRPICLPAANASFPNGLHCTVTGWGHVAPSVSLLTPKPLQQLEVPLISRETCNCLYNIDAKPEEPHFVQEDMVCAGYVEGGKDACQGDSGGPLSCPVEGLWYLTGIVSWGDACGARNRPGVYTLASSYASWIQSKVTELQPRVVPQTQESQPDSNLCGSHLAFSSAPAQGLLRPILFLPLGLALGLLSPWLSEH
T4 sequence (Q5KU26 whole entry S522P/G606S): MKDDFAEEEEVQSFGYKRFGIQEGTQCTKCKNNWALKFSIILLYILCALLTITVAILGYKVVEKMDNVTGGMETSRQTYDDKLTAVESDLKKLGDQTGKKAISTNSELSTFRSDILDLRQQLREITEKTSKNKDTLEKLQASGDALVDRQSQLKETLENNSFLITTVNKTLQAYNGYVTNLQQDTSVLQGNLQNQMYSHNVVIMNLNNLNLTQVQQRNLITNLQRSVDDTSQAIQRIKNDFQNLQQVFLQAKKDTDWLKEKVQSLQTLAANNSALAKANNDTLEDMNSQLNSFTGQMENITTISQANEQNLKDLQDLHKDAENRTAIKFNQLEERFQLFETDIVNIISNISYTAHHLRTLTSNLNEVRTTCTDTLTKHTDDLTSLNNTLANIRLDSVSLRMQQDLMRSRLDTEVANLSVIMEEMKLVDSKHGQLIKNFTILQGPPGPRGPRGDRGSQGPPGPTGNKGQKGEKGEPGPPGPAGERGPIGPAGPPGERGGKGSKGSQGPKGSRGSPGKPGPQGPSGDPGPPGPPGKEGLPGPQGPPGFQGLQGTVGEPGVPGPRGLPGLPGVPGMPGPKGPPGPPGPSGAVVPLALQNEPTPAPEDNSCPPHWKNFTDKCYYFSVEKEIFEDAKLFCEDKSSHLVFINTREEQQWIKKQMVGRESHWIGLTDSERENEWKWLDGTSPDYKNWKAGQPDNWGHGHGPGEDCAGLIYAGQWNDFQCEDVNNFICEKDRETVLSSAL

B1: mPILRα-Fc (Fc fusion)
chain: not shown
notes: also called mouse PILRα-Fc; WT mPILRα-Fc; not shown: Fc of mouse IgG2a (PILRα-mIgG2a, called PILRα-Fc)
- % cells in lower right quadrant [1]: 14.1%
- % cells in lower right quadrant (PSS8 expressed on cells [2]): 0.024%
- % cells in lower right quadrant (BR3 expressed on cells [3]): 34.1%
- % cells in lower right quadrant [4]: 0.082%
- % cells in lower right quadrant [5]: 34%
- % cells in lower right quadrant [6]: 29.6%
- % cells in lower right quadrant [7]: 55.7%
- % cells in lower right quadrant (PSS8 expressed on cells [8]): 30.6%
- % cells in lower right quadrant (BR3 expressed on cells [9]): 53.3%
- % cells in lower right quadrant (MAG expressed on cells): 0.039%

B2: mPILRαR133A-Fc (Fc fusion)
chain: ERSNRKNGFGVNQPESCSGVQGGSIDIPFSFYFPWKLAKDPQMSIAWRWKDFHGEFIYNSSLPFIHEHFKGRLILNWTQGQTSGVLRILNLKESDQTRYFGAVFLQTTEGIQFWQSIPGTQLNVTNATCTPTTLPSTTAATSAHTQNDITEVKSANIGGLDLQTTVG
notes: Arg mutant of mPILRα-Fc; also called mPILRα133A-Fc; variant mPILRα (R133A); not shown: Fc of mouse IgG2a (PILRα-mIgG2a, called PILRα-Fc)
- binding result (BR3 expressed on cells [10]): no binding (tested: 50 µg/ml)

B3: hPILRα-AP (other)
chain: QPSGSTGSGPSYLYGVTQPKHLSASMGGSVEIPFSFYYPWELATAPDVRISWRRGHFHRQSFYSTRPPSIHKDYVNRLFLNWTEGQKSGFLRISNLQKQDQSVYFCRVELDTRSSGRQQWQSIEGTKLSITQAVTTTTQRPSSMTTTWRLSSTTTTTGLRVTQGKRRSDSWHISLET
notes: Used as culture supernatant; also called human PILRα-AP; Alkaline phosphatase (AP)-tagged PILRα construct; not shown: C-terminal alkaline phosphatase (AP) tag
- binding result [11]: binds
